This assay concerns the target Ste2 GPCR (Saccharomyces cerevisiae) (UniProt D6VTK4). In words: cell-based or functional assay.

Ste2 GPCR (Saccharomyces cerevisiae), sequence (D6VTK4 whole entry): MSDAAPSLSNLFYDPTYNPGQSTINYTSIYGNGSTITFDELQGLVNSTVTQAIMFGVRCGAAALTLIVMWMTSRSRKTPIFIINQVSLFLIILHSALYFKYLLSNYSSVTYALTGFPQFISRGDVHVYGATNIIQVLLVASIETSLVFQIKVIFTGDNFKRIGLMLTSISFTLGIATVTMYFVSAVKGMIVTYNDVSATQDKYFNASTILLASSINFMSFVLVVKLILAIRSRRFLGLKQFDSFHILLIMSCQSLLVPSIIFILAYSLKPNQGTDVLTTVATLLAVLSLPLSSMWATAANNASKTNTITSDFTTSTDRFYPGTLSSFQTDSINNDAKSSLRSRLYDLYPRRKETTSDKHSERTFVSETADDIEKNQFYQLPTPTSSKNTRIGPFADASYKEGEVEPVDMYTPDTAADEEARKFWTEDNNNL

“α-factor (from UniProt P01149 90-102) (peptide)” had a GFP max (AU), PFig1-GFP(m) of 7570 AU; a GFP max (AU), PFig1-GFP(s) of 2310 AU; a GFP max (AU), PFus1-GFP(m) of 20500 AU; a GFP max (AU), PFus1-GFP(s) of 4560 AU. In addition, the KM (chemical concentration at half maximal signal), GFP reporter PFig1-GFP(m), flow cytometry was 0.02 µM; the KM (chemical concentration at half maximal signal), GFP reporter PFig1-GFP(s), flow cytometry was 0.03 µM; the KM (chemical concentration at half maximal signal), GFP reporter PFus1-GFP(m), flow cytometry was 0.02 µM; the KM (chemical concentration at half maximal signal), GFP reporter PFus1-GFP(s), flow cytometry came to 0.02 µM.

For the origin of these results see patent US20180187272A1.
